According to PMC11376382:

Legend:
[1] = target: 3×HA-FKBP-CUL1 (human | Cyanidioschyzon merolae)
[2] = target: 3×HA-FKBP-SKP1 (human | Cyanidioschyzon merolae)

Substance mVenus-FRB (domain or fragment) has a half-life (t1/2) of mVenus-FRB in the mV^RD-CUL1 strain after the addition of 500 nM rapamycin (the bridging compound), immunoblot time course [1] of 30 min and a half-life (t1/2) of mVenus-FRB in the mV^RD-SKP1 strain after the addition of 500 nM rapamycin (the bridging compound), immunoblot time course [2] of 46 min.
